The text below walks through data of paper PMC7642679.

Holding throughout (experiment): SEC
Assay [1] deals with spike-6P (HexaPro) SARS-CoV-2 spike protein construct (SARS-CoV-2).
The target in assay [2] is spike-6P D614G with the RBD replacement A419V (SARS-CoV-2).
Assay [3] deals with spike-6P D614G with the RBD replacement A522V (SARS-CoV-2).
The target in assay [4] is spike-6P D614G with the RBD replacement E484Q (SARS-CoV-2).
Assay [5] deals with spike-6P D614G with the RBD replacement F338L (SARS-CoV-2).
In assay [6] the target is spike-6P D614G with the RBD replacement G446V (SARS-CoV-2).
In assay [7] the target is spike-6P D614G with the RBD replacement R408T (SARS-CoV-2).
Assay [8] has as its target spike-6P D614G with the RBD replacement S373P (SARS-CoV-2).
Assay [9] has as its target spike-6P with the D614G substitution (SARS-CoV-2).

In turn, “spike-6P (HexaPro) SARS-CoV-2 spike protein construct” returned a stoichiometry N in assay [1] of 3.
“spike-6P D614G with the RBD replacement A419V” had a stoichiometry N in [2] of 3.
Substance “spike-6P D614G with the RBD replacement A522V” registered a stoichiometry N in [3] of 3.
With “spike-6P D614G with the RBD replacement E484Q”, the stoichiometry N in assay [4] stood at 3.
Consider “spike-6P D614G with the RBD replacement F338L”, for which, in assay [5], the stoichiometry N is 3.
For “spike-6P D614G with the RBD replacement G446V”, in assay [6], the stoichiometry N turned out to be 3.
For the substance “spike-6P D614G with the RBD replacement R408T”, the stoichiometry N in [7] was 3.
In the case of “spike-6P D614G with the RBD replacement S373P”, in [8], the stoichiometry N worked out at 3.
In turn, spike-6P with the D614G substitution gave a stoichiometry N in assay [9] of 3.
